The source of these data is publication PMC314469, “Protein Interaction Networks by Proteome Peptide Scanning” (PLoS Biology, 2004).

Test [1] has as its target T1, amphyphisin SH3 (AMPH_HUMAN), P49418.
T1 chain: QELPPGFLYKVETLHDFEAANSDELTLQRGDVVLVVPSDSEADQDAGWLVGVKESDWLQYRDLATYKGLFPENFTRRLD
Kind of test: SPOT array.

Test [2] has as its target endophilin SH3 (SH3G2_HUMAN), Q99962. As to the kind of experiment: SPOT array.

For ASGHIKRPMNAFMV [P35716 45-58], the normalised SPOT signal, Boehringer light units (BLU); mean over the file's lines of this peptide turned out to be 49 in test [1] and 146 in test [2].
On to PPPPPLRPPPPPPP [Q9BR93 13-27], for which the normalised SPOT signal, Boehringer light units (BLU); mean over the file's lines of this peptide in test [1] came to 283; in test [2] it was 1160.
The corresponding values for PPPPPARPPARRAS [Q9H1V5 1094-1108] are 11500 and 13100.
On the same counts, the results for PPWVPWRPPSSAAV [Q9UN47 31-45] are 829 and 835.
As for PPPLPQRPPPRLPP [Q9H9H4 263-277], the normalised SPOT signal, Boehringer light units (BLU); mean over the file's lines of this peptide came out at 2170 in test [1] and 2770 in test [2].
Turning to PPQIPSRPVRIPPG [P50570 828-841], the normalised SPOT signal, Boehringer light units (BLU); mean over the file's lines of this peptide in test [1] worked out at 8890; in test [2] it was 37500.
The corresponding values for PPPPPPRPSKPTPS [Q14956 325-338] are 1290 and 14300.
On the same counts, the results for PPSRPSRPPSHPSA [Q99700 586-600] are 14900 and 20300.
The corresponding values for PPPLPNKPPPEDYY [Q8TED9 137-151] are 42.3 and 92.7.
Consider PPSAPRRPPVYYKF [O95696 129-142], for which the figures for the normalised SPOT signal, Boehringer light units (BLU); mean over the file's lines of this peptide in test [1] and in test [2] were 71.5 and 2730, respectively.
The corresponding values for PPQSPRRPELPDLA [Q00973 42-55] are 51.7 and 164.
PPQVPSRPTRAPPS [Q9UQ16 664-677]: the normalised SPOT signal, Boehringer light units (BLU); mean over the file's lines of this peptide in test [1] was found to be 8780; in test [2], 12700.
Regarding PQEHPKRPVLGLES [O95862 118-131], the normalised SPOT signal, Boehringer light units (BLU); mean over the file's lines of this peptide in test [1] came out at 20.2; in test [2], 4.5.
Regarding PPPPIPRPAKLQAA [Q9HCG4 308-321], the normalised SPOT signal, Boehringer light units (BLU); mean over the file's lines of this peptide in test [1] was found to be 91; in test [2], 102.
Regarding PPQVPSRPNRAPPG [Q05193 829-842], the normalised SPOT signal, Boehringer light units (BLU); mean over the file's lines of this peptide in test [1] worked out at 11000; in test [2] it was 19600.
The corresponding values for ASFQPARPHRARHP [O95612 13-26] are 3200 and 649.
Turning to PPSGPLRPPATISP [Q9H4B5 83-97], the normalised SPOT signal, Boehringer light units (BLU); mean over the file's lines of this peptide was 105 in test [1] and 127 in test [2].
Turning to PPPKPNRPPNVDLT [O15117 355-369], the normalised SPOT signal, Boehringer light units (BLU); mean over the file's lines of this peptide in test [1] turned out to be 316; in test [2], 2890.
On the same counts, the results for PPTPPPRPQKTHSR [O43428 338-351] are 8950 and 41100.
The corresponding values for PPVVPRRPPAHISS [Q9NTY8 3-17] are 6110 and 17800.
PQGPPRRPPPHILD [Q9P2A8 24-38]: the normalised SPOT signal, Boehringer light units (BLU); mean over the file's lines of this peptide in test [1] turned out to be 131; in test [2], 4220.
On the same counts, the results for PPRKIKRPKRKMYR [Q96PV3 296-309] are 17.3 and 30.1.
With PPPPPERPPPIPPD [Q13191 554-568], the normalised SPOT signal, Boehringer light units (BLU); mean over the file's lines of this peptide in test [1] turned out to be 29.1; in test [2], 74.8.
The corresponding values for PPQPPQRPPPPTGL [O15056 1050-1064] are 1380 and 9830.
As to ASGGPRRPERHLPP [Q9Y6R0 7-20], the normalised SPOT signal, Boehringer light units (BLU); mean over the file's lines of this peptide in test [1] was found to be 3320; in test [2], 12600.
With PPPVPLRPPEHFIN [Q07890 1215-1229], the figures for the normalised SPOT signal, Boehringer light units (BLU); mean over the file's lines of this peptide in test [1] and in test [2] were 189 and 435, respectively.
With PPYGPSRPDKKQRM [Q9HA17 357-370], the normalised SPOT signal, Boehringer light units (BLU); mean over the file's lines of this peptide in test [1] turned out to be 193; in test [2], 394.
The corresponding values for PQPGFRRPARPETQ [Q16624 63-76] are 2800 and 97.
For PPPRPPRPPSPPPE [Q9UPS6 163-177], the normalised SPOT signal, Boehringer light units (BLU); mean over the file's lines of this peptide in test [1] came out at 5310; in test [2], 9410.
On the same counts, the results for PPQVPSRPTRAPPR [Q9H0P3 825-838] are 6350 and 11000.
As for PPPPPPRPPKQQPP [Q9UL51 22-36], the normalised SPOT signal, Boehringer light units (BLU); mean over the file's lines of this peptide was determined as 994 in test [1] and 1160 in test [2].
Turning to PPPLPRRPSTPRQG [O75412 1048-1061], the normalised SPOT signal, Boehringer light units (BLU); mean over the file's lines of this peptide in test [1] came to 1930; in test [2], 9490.
The corresponding values for PPPPPPRPPSRPKL [Q9BQI5 457-471] are 13700 and 13400.
The corresponding values for PPPTPRRPASVNGS [O43584 96-109] are 170 and 1020.
For PPWGPFRPPYSIFQ [BAC05210 58-72], the normalised SPOT signal, Boehringer light units (BLU); mean over the file's lines of this peptide stood at 56.3 in test [1] and 2520 in test [2].
PPVRPARPPGPLVT [Q8WYX3 74-88]: the results for the normalised SPOT signal, Boehringer light units (BLU); mean over the file's lines of this peptide in test [1] and in test [2] were 7480 and 6550, respectively.
On the same counts, the results for PPPPPTKPPETEAQ [Q9UJJ7 281-295] are 59.9 and 63.1.
With PPTRPSRPWRDLPE [Q9UIG4 65-78], the normalised SPOT signal, Boehringer light units (BLU); mean over the file's lines of this peptide in test [1] worked out at 4300; in test [2], 14300.
